Assay [1] has as its target T1, human blood coagulation factor Xa (Homo sapiens, UniProt P00742). Nature of the assay: cell-based or functional assay.
Target sequence in this assay (P00742 41-488 limits assumed): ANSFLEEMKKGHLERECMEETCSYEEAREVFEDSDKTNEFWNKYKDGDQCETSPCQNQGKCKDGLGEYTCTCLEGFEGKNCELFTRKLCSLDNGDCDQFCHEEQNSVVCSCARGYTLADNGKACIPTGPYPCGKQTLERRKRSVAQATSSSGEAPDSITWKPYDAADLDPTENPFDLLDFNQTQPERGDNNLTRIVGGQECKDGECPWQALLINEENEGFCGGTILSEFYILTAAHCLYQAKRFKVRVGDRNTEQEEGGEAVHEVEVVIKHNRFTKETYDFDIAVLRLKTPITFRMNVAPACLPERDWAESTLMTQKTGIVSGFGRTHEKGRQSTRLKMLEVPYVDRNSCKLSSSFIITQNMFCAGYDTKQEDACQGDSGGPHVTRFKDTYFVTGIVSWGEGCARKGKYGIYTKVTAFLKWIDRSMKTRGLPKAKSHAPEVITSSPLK
The target of assay [2] is T1, human blood coagulation factor Xa. Nature of the assay: Inhibition of the serine protease activity of human blood coagulation factor Xa (chromogenic substrate LGR-pNA). In kind it is biochemical. The following applies: 0.3 μM human factor Xa, 15 min at 37° C. preincubation, synthetic substrate LGR-pNA, Tris-HCl buffered saline pH8.0; from V/V0 curves of FIG. 4; read-out: 50% inhibition concentration (IC50) against serine protease activity of factor Xa. As to the method: Crude venom of Bitis arietans arietans purchased from LATOXAN was dissolved in Tris-HCl buffer (50 mM Tris-HCl pH 8.0) to prepare 2 mL of a crude venom solution (in concentration of 250 mg/mL). The crude venom solution was applied to Superdex 200 pg gel permeation column (φ2.6 cm×L 60 cm) equilibrated with the Tris-HCl buffer (50 mM Tris-HCl pH 8.0) at a flow rate of 2 mL/min. Two mL aliquots of the series of eluted fractions were collected, and each eluted fraction was determined for the presence of inhibitory activity against the serine protease activity of blood coagulation factor Xa. In the assay for inhibitory activity specific to the serine protease activity of blood coagulation factor Xa, a synthetic substrate Boc-leucyl-glycil-L-arginyl-p-nitroanilide hydrochloride was used to determine a concentration of a reaction product formed by truncation at the C-terminal side of an arginine residue by protease activity of blood coagulation factor Xa (Cproduct: concentration of p-nitroaniline), and then from a product concentration without addition of a test substance: Cproduct0 and a product concentration with addition of a test substance: Cproduct, an inhibitory rate was calculated as (Cproduct0−Cproduct)/Cproduct0. […]
Target sequence in this assay (P00742 235-488 limits assumed): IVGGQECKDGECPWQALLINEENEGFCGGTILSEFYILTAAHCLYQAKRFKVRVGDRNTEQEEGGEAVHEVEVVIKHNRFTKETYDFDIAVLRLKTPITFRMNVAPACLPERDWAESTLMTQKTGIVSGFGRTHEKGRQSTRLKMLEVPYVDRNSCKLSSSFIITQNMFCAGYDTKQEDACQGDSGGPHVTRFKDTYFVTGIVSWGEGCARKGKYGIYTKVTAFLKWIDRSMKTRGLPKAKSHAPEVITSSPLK
Target sequence in this assay (P00742 41-179 partner limits assumed): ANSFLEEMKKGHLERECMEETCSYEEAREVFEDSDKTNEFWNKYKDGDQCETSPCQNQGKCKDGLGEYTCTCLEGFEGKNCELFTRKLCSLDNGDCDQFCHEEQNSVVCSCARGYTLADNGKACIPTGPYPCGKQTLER

“SBTI (Soybean Trypsin Inhibitor; MW=20.1 kDa) (from UniProt P01070 25-205)”: in assay [1], the 50% inhibition concentration (IC50) of factor Xa protease activity (V/V0), cleavage of synthetic substrate LGR-pNA amounted to 3e-07 M.

B1: bitoran V (protein)
chain: CRQNRPDFCYLPAVEGPCRAYIRSFFYNSTSNECEKFFYGGCYGNANKFETRDECRKTCVASA
In the case of B1, the IC50 in assay [2] stood at 20 nM.

B2: SBTI: Trypsin inhibitor substance from plant; Kunitz-type trypsin inhibitor from soybean, MW=20.1 kDa, positive control (protein, UniProt P01070 25-205, looked up)
Trypsin inhibitor A: DFVLDNEGNPLENGGTYYILSDITAFGGIRAAPTGNERCPLTVVQSRNELDKGIGTIISSPYRIRFIAEGHPLSLKFDSFAVIMLCVGIPTEWSVVEDLPEGPAVKIGENKDAMDGWFRLERVSDDEFNNYKLVFCPQQAEDDKCGDIGISIDHDDGTRRLVVSKNKPLVVQFQKLDKESL
Turning to B2, the IC50 in assay [2] was determined as 300 nM.

These data come from patent US20090036647A1, “BITORAN WHICH IS TRYPSIN-INHIBITOR-LIKE PROTEIN DERIVED FROM BITIS ARIETANS VENOM, AND USE THEREOF AS BLOOD COAGULATION FACTOR Xa INHIBITOR” (NEC SOFT, LTD., priority 2005, published 2009).
